One molecule from article PMC7077502 can be followed below.

For this data set, the target named is His6-eIF4A1 (UniProt P60843 1-406). The experiment in a line: fluorescence polarization. In general terms: Fluorescence polarisation rises when a labelled molecule tumbles more slowly, as on binding a larger partner.
Sequence of His6-eIF4A1 (P60843 whole entry): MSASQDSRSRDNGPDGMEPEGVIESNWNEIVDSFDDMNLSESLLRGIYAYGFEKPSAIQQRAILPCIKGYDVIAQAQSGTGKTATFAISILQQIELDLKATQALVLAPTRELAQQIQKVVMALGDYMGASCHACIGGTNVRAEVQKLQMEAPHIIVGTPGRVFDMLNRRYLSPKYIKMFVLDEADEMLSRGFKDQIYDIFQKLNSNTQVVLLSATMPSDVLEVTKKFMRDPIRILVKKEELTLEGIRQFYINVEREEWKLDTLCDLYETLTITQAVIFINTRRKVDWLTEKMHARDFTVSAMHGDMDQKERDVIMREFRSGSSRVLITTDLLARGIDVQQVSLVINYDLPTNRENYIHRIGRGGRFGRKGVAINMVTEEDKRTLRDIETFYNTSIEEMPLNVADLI

As for AGAGAGAGAGAGAGAG (ssRNA) [r(AG)8], the binding result was “binds”.
